Patent US20140370030A1 (CENTRE NATIONAL DE LA RECHERCHE SCIENTIFIQUE CNRS, published 2014)
One block for each molecule: values may come before it.

Tests used:
[1] = biological target: recombinant human sPLA2-X (human group X secreted phospholipase A2), mature enzyme (human) (UniProt O15496); assay: indirect ELISA on wells coated with 50 ng recombinant human sPLA2-X; one-site saturation fit, relative Kd
[2] = biological target: T1, recombinant human sPLA2-X (human group X secreted phospholipase A2), mature enzyme (human, UniProt O15496 43-165); assay: indirect ELISA on coated recombinant human sPLA2-X, anti-mouse IgG-HRP detection; one-site saturation fit
T1 construct: also called hGX
T1 sequence: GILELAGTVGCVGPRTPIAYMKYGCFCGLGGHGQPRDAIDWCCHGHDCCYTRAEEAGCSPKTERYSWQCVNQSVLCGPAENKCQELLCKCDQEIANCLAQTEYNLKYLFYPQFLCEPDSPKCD

[3] = biological target: T1, recombinant human sPLA2-X (human group …); assay: indirect ELISA on wells coated with 50 ng recombinant human sPLA2-X; one-site saturation fit, relative Kd
[4] = biological target: T1, recombinant human sPLA2-X (human group …); assay: indirect ELISA on coated recombinant human sPLA2-X, streptavidin-HRP detection; one-site saturation fit
[5] = biological target: T1, recombinant human sPLA2-X (human group …); assay: indirect ELISA on coated recombinant human sPLA2-X

Kd [1]: 8.94 nM
Molecule: commercially available monoclonal antibody H9 (ref. SC-365730, Santa Cruz Biotechnology)

Kd [2]: 0.246 nM
Kd [3]: 0.327 nM
B1: monoclonal anti-sPLA2-X antibody #8D9 (antibody, V domains shown)
VH: EVKLVESGGGLVKPGGSLKLSCAASGFTFSNYPMSWVRQTPAKRLEWVATISSGGDDTYYPDSVKGRFTISRDNARNTLYLQMSCLRSEDTALYYCARPQLGPWGQGTTLTVSS
VL: DIVMTQAAPSVPVTPGDSVSISCRSSKSLLHSNGITYLYWFLQRPGQSPQRLIYYMSNLASGVPDRFSGRGSGTDFTLRISRVEAEDVGVYYCMQSLEYPLTFGAGTKLELKR
notes: Mouse monoclonal antibody from a hybridoma, purified by protein A; also called 8D9 antibody; hybridoma CNCM I-4523

Kd [4]: 0.353 nM
B2: biotinylated monoclonal antibody #8D9 (antibody, V domains shown)
VH: B1 VH
VL: B1 VL
modifications: biotinylated (Pierce kit ref. 21435); sites not stated
notes: also called #8D9-Biot; 8D9-biot

binding result [5]: binds
B3: biotinylated monoclonal antibody #9C12 (antibody, V domains shown)
VH: QIQLVQSGPELKKPGETVKISCKASGYTFTNYGMNWVKQAPGKGLKWMGWIKTNTGEPTYAEEFKGRFAFSLETSASTAYLQINNLKNEDTATYFCARGNYYRPRRYFDYWGQGTTLTVSS
VL: DIQMSQSPASLSASVGETVTMTCRASENLYSNLAWYQQKQGKSPQLLVYAATNLADGVPSRFSGSGSGTQFSLKINSLQPEDFGSYYCQHFYVTPYTFGGGTKLEIKR
modifications: biotinylated (Pierce kit ref. 21435); sites not stated
notes: also called #9C12-Biot

Kd [3]: 0.181 nM
B4: monoclonal anti-sPLA2-X antibody #9C12 (antibody, V domains shown)
VH: B3 VH
VL: B3 VL
notes: Mouse monoclonal antibody from a hybridoma, purified by protein A; also called 9C12 antibody; hybridoma CNCM I-4524
